Assay results from the supplement of paper PMC7877785.
± gives the uncertainty stated by the source.

Test: self-splicing fitness, log relative to wild type (ln ratio); higher = more splicing; Tetrahymena group I intron in knt gene, E. coli kanamycin selection, DiMSum; sequences stand for … in CUCUCU…GGAGGGAAAAGUUAUCAGGCAUGCACCUGGUAGCUAGUCUUUAAACCAAUAGAUUGCAUCGGUUUAAAAGGCAAGACCGUCAAAUUGCGGGAAAGGGGUCAACAGCCGUUCAGUACCAAGUCUCAGGGGAAACUUUGAGAUGGCCUUGCAAAGGGUAUGGUAAUAAGCUGACGGACAUGGUCCUAACCACGCAGCCAAGUCCUAAGUCAACAGAUCUUCUGUUGAUAUGGAUGCAGUUCACAGACUAAAUGUCGGUCGGGGAAGAUGUAUUCUUCUCAUAAGAUAUAGUCGGACCUCUCCUUAAUGGGAGCUAGCGGAUGAAGUGAUGCAACACUGGAGCCGCUGGGAACUAAUUUGUAUGCGAAAGUAUAUUGAUUAGUUUUGGAGUACUCGUGGUCG
Procedure, shortened: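 Library with all eight P1ex-region intron nucleotides randomised, intron inside the knt kanamycin-resistance gene on pET-22b(+), in E. coli BL21(DE3). Cells grew overnight at 37°C or 30°C on LB agar with or without 25 μg/mL kanamycin (plus 100 μg/mL carbenicillin, 50 μM IPTG, 0.2% rhamnose), in six replicate transformations. Pooled colonies were amplicon-sequenced on Illumina HiSeq 2500. DiMSum fitness is the error-weighted combination of wild-type-normalised replicate fold changes, kanamycin versus none.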

## ACGCAGCAAUAUUACGUUCA
30 °C
  self-splicing fitness (ln): -1.96 ± 0.11
37 °C
  self-splicing fitness (ln): -0.844 ± 0.094

## ACGCAGCAAUAUUACGUUGG
30 °C
  self-splicing fitness (ln): -2.94 ± 0.082
37 °C
  self-splicing fitness (ln): -1.91 ± 0.096

## ACGGAGCAAUAUUACGAGCU
30 °C
  self-splicing fitness (ln): -3.64 ± 0.46
37 °C
  self-splicing fitness (ln): -2.24 ± 0.32

## ACGGAGCAAUAUUACGAGUC
30 °C
  self-splicing fitness (ln): -3.83 ± 0.33
37 °C
  self-splicing fitness (ln): -2.64 ± 0.38

## ACGGAGCAAUAUUACGCAUC
30 °C
  self-splicing fitness (ln): -2.6 ± 0.17
37 °C
  self-splicing fitness (ln): -2.03 ± 0.21

## ACGGAGCAAUAUUACGCCGG
30 °C
  self-splicing fitness (ln): -1.09 ± 0.38

## ACGGAGCAAUAUUACGCGCG
30 °C
  self-splicing fitness (ln): -2 ± 0.15
37 °C
  self-splicing fitness (ln): -0.429 ± 0.14

## ACGGAGCAAUAUUACGCGGC
30 °C
  self-splicing fitness (ln): -3.42 ± 0.44

## ACGGAGCAAUAUUACGCUCC
37 °C
  self-splicing fitness (ln): -1.28 ± 0.37

## ACGGAGCAAUAUUACGGAGU
30 °C
  self-splicing fitness (ln): -2.53 ± 0.27
37 °C
  self-splicing fitness (ln): -1.55 ± 0.18

## ACGGAGCAAUAUUACGGAUC
30 °C
  self-splicing fitness (ln): -3.09 ± 0.17
37 °C
  self-splicing fitness (ln): -2.79 ± 0.26

## ACGGAGCAAUAUUACGGCGC
30 °C
  self-splicing fitness (ln): 0.159 ± 0.44
37 °C
  self-splicing fitness (ln): -0.221 ± 0.45

## ACGGAGCAAUAUUACGGCUC
30 °C
  self-splicing fitness (ln): -3.6 ± 0.3
37 °C
  self-splicing fitness (ln): -2.87 ± 0.48

## ACGGAGCAAUAUUACGGGUU
30 °C
  self-splicing fitness (ln): -3.25 ± 0.16
37 °C
  self-splicing fitness (ln): -3.6 ± 0.3

## ACGGAGCAAUAUUACGGUAG
37 °C
  self-splicing fitness (ln): -2.33 ± 0.31

## ACGGAGCAAUAUUACGGUCC
30 °C
  self-splicing fitness (ln): -3.38 ± 0.36
37 °C
  self-splicing fitness (ln): -1.39 ± 0.34

## ACGGAGCAAUAUUACGGUUG
30 °C
  self-splicing fitness (ln): -3.93 ± 0.31
37 °C
  self-splicing fitness (ln): -2.22 ± 0.18

## ACGGAGCAAUAUUACGUCAG
30 °C
  self-splicing fitness (ln): -3.38 ± 0.19
37 °C
  self-splicing fitness (ln): -1.69 ± 0.18

## ACGGAGCAAUAUUACGUCCU
30 °C
  self-splicing fitness (ln): -1.85 ± 0.13
37 °C
  self-splicing fitness (ln): -1.27 ± 0.15

## ACGGAGCAAUAUUACGUCGA
30 °C
  self-splicing fitness (ln): -2.03 ± 0.38
37 °C
  self-splicing fitness (ln): -2.07 ± 0.28

## ACGGAGCAAUAUUACGUCUA
30 °C
  self-splicing fitness (ln): -3.96 ± 0.46
37 °C
  self-splicing fitness (ln): -1.3 ± 0.16

## ACGGAGCAAUAUUACGUCUG
30 °C
  self-splicing fitness (ln): -1.94 ± 0.19
37 °C
  self-splicing fitness (ln): 0.013 ± 0.14

## ACGGAGCAAUAUUACGUGAC
30 °C
  self-splicing fitness (ln): -2.68 ± 0.28
37 °C
  self-splicing fitness (ln): -2.16 ± 0.42

## ACGGAGCAAUAUUACGUUAU
37 °C
  self-splicing fitness (ln): -2.94 ± 0.23

## ACGUAGCAAUAUUACGAAGA
30 °C
  self-splicing fitness (ln): -2.85 ± 0.41
37 °C
  self-splicing fitness (ln): -0.644 ± 0.16

## ACGUAGCAAUAUUACGACGC
30 °C
  self-splicing fitness (ln): -0.35 ± 0.25
37 °C
  self-splicing fitness (ln): -0.563 ± 0.3

## ACGUAGCAAUAUUACGAGGG
30 °C
  self-splicing fitness (ln): -3.91 ± 0.26
37 °C
  self-splicing fitness (ln): -2.92 ± 0.26

## ACGUAGCAAUAUUACGAGUC
30 °C
  self-splicing fitness (ln): -3.3 ± 0.4
37 °C
  self-splicing fitness (ln): -3.2 ± 0.35

## ACGUAGCAAUAUUACGCCAA
30 °C
  self-splicing fitness (ln): -2.3 ± 0.38
37 °C
  self-splicing fitness (ln): -1.5 ± 0.37

## ACGUAGCAAUAUUACGCGUG
30 °C
  self-splicing fitness (ln): -1.73 ± 0.094
37 °C
  self-splicing fitness (ln): -0.962 ± 0.11

## ACGUAGCAAUAUUACGCUAG
30 °C
  self-splicing fitness (ln): -2.85 ± 0.12
37 °C
  self-splicing fitness (ln): -0.713 ± 0.13

## ACGUAGCAAUAUUACGCUCC
30 °C
  self-splicing fitness (ln): -2.71 ± 0.36
37 °C
  self-splicing fitness (ln): -0.259 ± 0.22

## ACGUAGCAAUAUUACGGAGC
30 °C
  self-splicing fitness (ln): -3.42 ± 0.22
37 °C
  self-splicing fitness (ln): -2.39 ± 0.26

## ACGUAGCAAUAUUACGGGCA
30 °C
  self-splicing fitness (ln): -0.955 ± 0.099
37 °C
  self-splicing fitness (ln): -0.418 ± 0.12

## ACGUAGCAAUAUUACGGGGA
30 °C
  self-splicing fitness (ln): -1.93 ± 0.1
37 °C
  self-splicing fitness (ln): -1.83 ± 0.099

## ACGUAGCAAUAUUACGUGAU
30 °C
  self-splicing fitness (ln): -3.19 ± 0.14
37 °C
  self-splicing fitness (ln): -1.63 ± 0.12

## ACGUAGCAAUAUUACGUGGC
30 °C
  self-splicing fitness (ln): -2.94 ± 0.17
37 °C
  self-splicing fitness (ln): -2.98 ± 0.26

## ACGUAGCAAUAUUACGUUAU
30 °C
  self-splicing fitness (ln): -3.76 ± 0.17
37 °C
  self-splicing fitness (ln): -2.34 ± 0.16

## ACGUAGCAAUAUUACGUUCG
30 °C
  self-splicing fitness (ln): -2.69 ± 0.12
37 °C
  self-splicing fitness (ln): -0.757 ± 0.12

## ACGUAGCAAUAUUACGUUUC
30 °C
  self-splicing fitness (ln): -4.47 ± 0.25
37 °C
  self-splicing fitness (ln): -2.87 ± 0.19

## ACGUAGCAAUAUUACGUUUU
30 °C
  self-splicing fitness (ln): -2.63 ± 0.12
37 °C
  self-splicing fitness (ln): -1.15 ± 0.12

## ACUAAGCAAUAUUACGAAAA
30 °C
  self-splicing fitness (ln): -2.26 ± 0.33
37 °C
  self-splicing fitness (ln): -1.72 ± 0.36

## ACUAAGCAAUAUUACGAAGC
30 °C
  self-splicing fitness (ln): -3.67 ± 0.21
37 °C
  self-splicing fitness (ln): -3.25 ± 0.22
